Values of other authors as cited in paper PMC5264612.

Key:
MftA = MftA (UniProt P9WJ80)
MftC = MftC (UniProt P9WJ78)
UniProt P9WJ78, sequence (P9WJ78 whole entry): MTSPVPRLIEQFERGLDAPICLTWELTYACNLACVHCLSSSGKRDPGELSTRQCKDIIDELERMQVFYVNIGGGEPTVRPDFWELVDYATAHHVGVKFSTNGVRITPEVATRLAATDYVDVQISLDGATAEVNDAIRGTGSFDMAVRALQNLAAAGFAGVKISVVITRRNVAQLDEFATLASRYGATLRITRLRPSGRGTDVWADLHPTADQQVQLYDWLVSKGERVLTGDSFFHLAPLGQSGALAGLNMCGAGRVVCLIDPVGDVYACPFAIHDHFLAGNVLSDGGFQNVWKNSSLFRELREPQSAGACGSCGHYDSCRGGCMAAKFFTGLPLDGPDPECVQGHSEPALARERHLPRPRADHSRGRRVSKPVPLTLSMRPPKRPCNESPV

UniProt P9WJ80, sequence (P9WJ80 whole entry): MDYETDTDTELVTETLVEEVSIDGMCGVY

Q: For MftB (from UniProt A0PM48), which Kd (MftA) is on record?
A: 120 nM

Q: What about the Kd (MftC) of the same substance?
A: 2000 nM
